In US12544447B2, “Nuclease-dendrimer formulations for Covid-19 and broad-spectrum antiviral therapy and prophylaxis” (priority 2020, dated 2026):
Where two headings read alike, the source gives them in different places.

B1: mildly cationized RNase: bovine pancreatic RNase A carboxyl groups amidated with ethylenediamine using 10 mg EDC; mixture of diversely modified proteins (protein, UniProt P61823 27-150, looked up)
Ribonuclease pancreatic: KETAAAKFERQHMDSSTSAASSSNYCNQMMKSRNLTKDRCKPVNTFVHESLADVQAVCSQKNVACKNGQTNCYQSYSTMSITDCRETGSSKYPNCAYKTTQANKHIIVACEGNPYVPVHFDASV
modifications: carboxyls amidated with ethylenediamine, mildly cationized
notes: bovine pancreatic RNase A carboxyl groups amidated with ethylenediamine using 10 mg EDC; mixture of diversely modified proteins
B2: highly cationized RNase: bovine pancreatic RNase A carboxyl groups amidated with ethylenediamine using EDC 80+80+40 mg; mixture of diversely modified proteins (protein, UniProt P61823 27-150, looked up)
Ribonuclease pancreatic: B1 Ribonuclease pancreatic
modifications: carboxyls amidated with ethylenediamine, highly cationized
notes: bovine pancreatic RNase A carboxyl groups amidated with ethylenediamine using EDC 80+80+40 mg; mixture of diversely modified proteins
B3: ranpiRNase: ribonuclease enzyme found in the oocytes of the northern leopard frog (rana pipiens) (protein, UniProt P22069 1-104, looked up)
Protein P-30: QDWLTFQKKHITNTRDVDCDNIMSTNLFHCKDKNTFIYSRPEPVKAICKGIIASKNVLTTSEFYLSDCNVTSRPCKYKLKKSTNKFCVTCENQAPVHFVGVGSC

Experiments:
[1] = tested on: HEK293T cells; test: Cytotoxicity of cationized RNase using HEK293T cells; assay type: cell-based, human
Description: In this example, initially, the cytotoxicity of cationized RNase using HEK293T cells is tested. Next, the highest dose with more than 80% surviving cells is selected for an anti-viral test of a co-treatment of RNase/DNase complexed with a highly cationic molecule dendrimer (the generation 2 poly PAMAM dendrimer described above) to enhance the efficacy of ribonucleases as anti-virus (HCoV-NL63/OC43) agents.
In this set of exemplar experiments, the same methodology, including the cellular compositions, viral samples, and RNase/DNase formulations from Example 1 are utilized in the various experimental combinations shown in FIG. 21.

[2] = Aggregate net charge estimated from published data; assay type: physicochemical; conditions: calculated estimates from published data
Text: To determine the resulting aggregate net charge of each mixture (mildly or highly) cationized RNase A may be fractionated according to net charge by cation-exchange chromatography. Based upon calculated estimates from published data, the aggregate net charge of the mildly cationized RNase obtained from the above methodology is approximately +11 to +13 and the aggregate net charge of the highly cationized RNase obtained from the above methodology is approximately +21 to +23.

[3] = tested on: HCoV-OC43 virus; assay type: cell-based; conditions: OC43, HEK293T
[4] = tested on: OC43 virus; test: RT-qPCR of cell culture medium for OC43 virus; conditions: RNase 10 μg/mL, dendrimer 10 μM where present
Description: To conduct the RT-qPCR testing, cell culture medium was collected at 3 and 5 days after virus infection with or without mild RNase plus dendrimer treatment for RT-qPCR test. RNA from the infection virus were used for reverse transcriptase (RT) to direct complimentary DNA (cDNA) synthesis. The resulting cDNA was used as templates for the RT-qPCR reaction with a SYBR RT-PCR Kit. Reaction conditions were: 30 minutes RT at 50° C., 15 minutes at 94° C. for inactivation of reverse transcriptase (RT), followed by 40 cycles of 95° C. for 15 seconds, 60° C. for 45 seconds. Finally, conditions of 65° C. for 5 seconds and 95° C. for 5 seconds were used.
Melting curve analysis was performed under the condition of 95° C. for 60 seconds, 40° C. for 60 seconds, 65° C. for 1 second, followed by a slow increase from 65° C. to 95° C. at a rate of 0.07° C. per second.
Note that the limit for this PCR reaction is between 10-100 particles, which is sufficient to detect if a well is infected or has virus present.

[5] = tested on: HIV; conditions: published research; cited from earlier work
[6] = cited from earlier work

Molecule | concentration with survival of 80% of the control cells ([1]; FIG. 22) [µg/mL] | aggregate net charge [2] | effective reduction compared to the control group (TCID50) ([3]; 7.5 μg/ml) [×] | virus detection in medium by RT-qPCR after 3 days ([4]; 3 days) | virus detection in medium by RT-qPCR after 5 days ([4]; 5 days) | concentration with 80% survival of control cells, interpolated ([1]; interpolation of experimental results) [µg/mL] | effective reduction compared to the control group (TCID50) ([3]; highly cationized formulation) | antiviral effect on HIV [5] | maximum tolerated dose (MTD) ([6]; intravenously weekly, patients with malignant mesothelioma) [mg/m2] | maximum tolerated dose (MTD) ([6]; of skin area, phase one clinical study) [μg/m^2]
B1 | 10 | +11 to +13 | 6.8 | detected | detected |  |  |  |  | 
B2 |  | +21 to +23 |  |  |  | 0.2 to 0.5 | negligible |  |  | 
B3 |  |  |  |  |  |  |  | shown antiviral activity against HIV | 960 | 960
